Marks after values point to notes of the source that are not given here.
Assays:
[1] = Conversion of impurities back into Conjugate 57 in acetate buffer; assay type: physicochemical
Method: Two impurities present in Conjugate 57 with RRT at 1.69 and 1.70, referred to herein as Impurity A and B respectively, were identified as Conjugate 57 adducts. […] The rate of conversion of these two compounds back into Conjugate 57 is dependent on temperature. Data are provided in Table 11A and Table 11B showing this conversion at room temperature and 40° C.

[2] = system: HCC-33 (small cell lung cancer) xenograft; assay: HCC-33 xenograft efficacy; assay type: in vivo
Method: HCC-33 (small cell lung cancer) xenograft was chosen to study efficacy of Conjugate 57. In some groups, Conjugate 57 was given at 1.0 mg/kg, 0.5 mg/kg or 0.33 mg/kg every week for 30 days, a total of four doses for each animal. In some other groups, Conjugate 57 was also given at 0.5 mg/kg or 0.25 mg/kg twice a week for 30 days, a total of 8 total doses for each animal.

[3] = Excipient solubility and compatibility testing; assay type: physicochemical
Method: Conjugate 57 is an amphiphilic molecule and therefore tends to self-assemble into large structures. […] Commonly used parenteral surfactant excipients such as Polysorbate 80 (Tween 80) and Polyoxyl 15 Hydroxystearate (solutol, Kolliphor HS 15) were evaluated to re-assemble and stabilize Conjugate 57 into organized micelles. Conjugate 57 is compatible with non-ionic surfactants such as Tween 80 and solutol.

[4] = Drug substance stability study; assay type: physicochemical
Method: Stability studies were carried out for Conjugate 57. The tests included in the stability protocols ensure that changes relating to appearance, strength, purity, and moisture of the drug substance are monitored through-out the shelf life of the drug substance. Endotoxins are also monitored by annual inclusion of tests for these attributes in the stability program.
In another stability study, the following conditions were tested: 5° C.±3° C. under nitrogen and −20° C.±5° C. under nitrogen. Nitrogen was selected to prevent oxidation and assure control atmosphere during storage.

[5] = target: SSTR2 (Homo sapiens, UniProt P30874); assay: Affinity profile (half-maximal inhibitory concentration), SSTR2; assay type: binding
SSTR2, sequence (P30874 whole entry): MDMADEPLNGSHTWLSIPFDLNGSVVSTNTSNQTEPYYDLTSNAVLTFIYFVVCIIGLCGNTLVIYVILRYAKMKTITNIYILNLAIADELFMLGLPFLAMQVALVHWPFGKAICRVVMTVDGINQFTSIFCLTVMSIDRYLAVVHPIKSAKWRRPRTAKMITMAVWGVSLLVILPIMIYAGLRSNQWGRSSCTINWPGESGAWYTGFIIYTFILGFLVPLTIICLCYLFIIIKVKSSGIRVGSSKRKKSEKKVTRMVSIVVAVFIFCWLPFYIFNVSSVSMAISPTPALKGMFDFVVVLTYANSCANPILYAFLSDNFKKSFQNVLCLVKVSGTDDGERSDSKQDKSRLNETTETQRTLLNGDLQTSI
Excerpt: DOTATE, also known as DOTA-TATE or DOTA-octreotate, comprises an amide of the acid DOTA, which connects a radionuclide and (Tyr3)-octreotate, a derivative of octreotide. DOTATOC, also known as edotreotide, SMT487, or (DOTA^0-Phe^1-Tyr^3)octreotide, is also an octreotide derivative which can be bound to radionuclides for diagnosis and treatment.

[6] = Lot 1, 5° C. ± 3° C. study, Initial
[7] = Lot 1, −20° C. ± 5° C. study, Initial
[8] = Lot 1 stored at 5° C. ± 3° C., 3 Month
[9] = Lot 1 stored at −20° C. ± 5° C., 3 Month
[10] = Lot 2, 5° C. ± 3° C./Ambient RH under nitrogen, Initial
[11] = Lot 2, 25° C. ± 2° C., 60% RH ± 5% RH study, Initial
[12] = Lot 2 stored at 5° C. ± 3° C./Ambient RH under nitrogen, 1 Month
[13] = Lot 2 stored at 5° C. ± 3° C./Ambient RH under nitrogen, 1 Month, preliminary identification
[14] = Lot 2 stored at 25° C. ± 2° C., 60% RH ± 5% RH, 3 Month

Structure (SMILES): COc1cc2cc(c1Cl)N(C)C(=O)C[C@H](OC(=O)[C@H](C)N(C)C(=O)CCSSC[C@H](NC(=O)[C@@H]1CSSC[C@H](NC(=O)[C@H](N)Cc3ccccc3)C(=O)N[C@@H](Cc3ccc(O)cc3)C(=O)N[C@H](Cc3c[nH]c4ccccc34)C(=O)N[C@@H](CCCCN)C(=O)N[C@@H]([C@@H](C)O)C(=O)N1)C(N)=O)[C@]1(C)O[C@H]1[C@H](C)[C@@H]1C[C@@](O)(NC(=O)O1)[C@H](OC)/C=C/C=C(\C)C2 [Conjugate 57]
- Total (sum of Conjugate 57 and impurities A and B) ([1]; 40° C., 0 hr): 98.6%
- content during conversion of impurities ([1]; 40° C., 0 hr): 94.6%
- Total (sum of Conjugate 57 and impurities A and B) ([1]; 40° C., 1.4 hr): 98.7%
- content during conversion of impurities ([1]; 40° C., 1.4 hr): 97.9%
- Total (sum of Conjugate 57 and impurities A and B) ([1]; 40° C., 8.4 hr): 98.8%
- content during conversion of impurities ([1]; 40° C., 8.4 hr): 98.5%
- Total (sum of Conjugate 57 and impurities A and B) ([1]; room temperature, 0 hr): 98.6%
- content during conversion of impurities ([1]; room temperature, 0 hr): 94.6%
- Total (sum of Conjugate 57 and impurities A and B) ([1]; room temperature, 9.0 hr): 98.7%
- content during conversion of impurities ([1]; room temperature, 9.0 hr): 97.8%
- Total (sum of Conjugate 57 and impurities A and B) ([1]; room temperature, 11.6 hr): 98.8%
- content during conversion of impurities ([1]; room temperature, 11.6 hr): 98.1%
- Total (sum of Conjugate 57 and impurities A and B) ([1]; room temperature, 14.8 hr): 98.8%
- content during conversion of impurities ([1]; room temperature, 14.8 hr): 98.3%
- Total (sum of Conjugate 57 and impurities A and B) ([1]; room temperature, 16.7 hr): 98.8%
- content during conversion of impurities ([1]; room temperature, 16.7 hr): 98.3%
- TGI % ([2]; 0.25 mg/kg 2x/wk (8 doses), Day 4): −12.5%
- TGI % ([2]; 0.25 mg/kg 2x/wk (8 doses), Day 8): 50.4%
- TGI % ([2]; 0.25 mg/kg 2x/wk (8 doses), Day 11): 67.3%
- TGI % ([2]; 0.25 mg/kg 2x/wk (8 doses), Day 15): 85.8%
- TGI % ([2]; 0.25 mg/kg 2x/wk (8 doses), Day 18): 92.3%
- TGI % ([2]; 0.25 mg/kg 2x/wk (8 doses), Day 22): 95.8%
- TGI % ([2]; 0.25 mg/kg 2x/wk (8 doses), Day 25): 97.2%
- TGI % ([2]; 0.25 mg/kg 2x/wk (8 doses), Day 29): 97.8%
- TGI % ([2]; 0.33 mg/kg every week (4 doses), Day 4): 2.1%
- TGI % ([2]; 0.33 mg/kg every week (4 doses), Day 8): 34.2%
- TGI % ([2]; 0.33 mg/kg every week (4 doses), Day 11): 48%
- TGI % ([2]; 0.33 mg/kg every week (4 doses), Day 15): 62.4%
- TGI % ([2]; 0.33 mg/kg every week (4 doses), Day 18): 73.8%
- TGI % ([2]; 0.33 mg/kg every week (4 doses), Day 22): 79%
- TGI % ([2]; 0.33 mg/kg every week (4 doses), Day 25): 83.4%
- TGI % ([2]; 0.33 mg/kg every week (4 doses), Day 29): 78.5%
- TGI % ([2]; 0.5 mg/kg 2x/wk (8 doses), Day 4): 0.5%
- TGI % ([2]; 0.5 mg/kg 2x/wk (8 doses), Day 8): 61.6%
- TGI % ([2]; 0.5 mg/kg 2x/wk (8 doses), Day 11): 78.3%
- TGI % ([2]; 0.5 mg/kg 2x/wk (8 doses), Day 15): 91.8%
- TGI % ([2]; 0.5 mg/kg 2x/wk (8 doses), Day 18): 96.2%
- TGI % ([2]; 0.5 mg/kg 2x/wk (8 doses), Day 22): 97.6%
- TGI % ([2]; 0.5 mg/kg 2x/wk (8 doses), Day 25): 99.1%
- TGI % ([2]; 0.5 mg/kg 2x/wk (8 doses), Day 29): 99.2%
- TGI % ([2]; 0.5 mg/kg every week (4 doses), Day 4): 1.6%
- TGI % ([2]; 0.5 mg/kg every week (4 doses), Day 8): 60.3%
- TGI % ([2]; 0.5 mg/kg every week (4 doses), Day 11): 68.8%
- TGI % ([2]; 0.5 mg/kg every week (4 doses), Day 15): 82.7%
- TGI % ([2]; 0.5 mg/kg every week (4 doses), Day 18): 87.1%
- TGI % ([2]; 0.5 mg/kg every week (4 doses), Day 22): 91.1%
- TGI % ([2]; 0.5 mg/kg every week (4 doses), Day 25): 93.6%
- TGI % ([2]; 0.5 mg/kg every week (4 doses), Day 29): 89.5%
- TGI % ([2]; 1.0 mg/kg every week (4 doses), Day 4): 25.8%
- TGI % ([2]; 1.0 mg/kg every week (4 doses), Day 8): 69.9%
- TGI % ([2]; 1.0 mg/kg every week (4 doses), Day 11): 84.4%
- TGI % ([2]; 1.0 mg/kg every week (4 doses), Day 15): 93.6%
- TGI % ([2]; 1.0 mg/kg every week (4 doses), Day 18): 97.4%
- TGI % ([2]; 1.0 mg/kg every week (4 doses), Day 22): 99.2%
- TGI % ([2]; 1.0 mg/kg every week (4 doses), Day 25): 99.8%
- TGI % ([2]; 1.0 mg/kg every week (4 doses), Day 29): 99.7%
- Body weights ([2]; HCC-33 xenograft, all groups): good
- tolerability of multiple doses ([2]; HCC-33 xenograft, weekly or twice weekly dosing for 30 days): well tolerated
- solubility ([3]; in saline): < 1 mg/mL
- excipient compatibility ([3]; non-ionic surfactants such as Tween 80 and solutol): compatible
- excipient compatibility ([3]; tocophersolan (TPGS), super refined PEG 300, PEG 400, ethanol, dextrose, or Pluronics F68): not compatible
- degradation on storage ([4]; 5° C.±3° and 25° C./60% Relative Humidity (RH), 3 months): Significant degradation
- Appearance [4, 6]: White powder
- Assay [4, 6]: 88.2%
- Moisture Content by KF [4, 6]: 4.3%
- Purity (RP-HPLC) [4, 6]: 98.0%
- Total Impurities [4, 6]: 1.9%
- Appearance [4, 7]: White powder
- Assay [4, 7]: 88.2%
- Moisture Content by KF [4, 7]: 4.3%
- Purity (RP-HPLC) [4, 7]: 98.0%
- Total Impurities [4, 7]: 1.9%
- Appearance [4, 8]: White powder
- Assay [4, 8]: 88.2%
- Purity (RP-HPLC) [4, 8]: 97.4%
- Total Impurities [4, 8]: 2.5%
- Appearance [4, 9]: White powder
- Assay [4, 9]: 90.9%
- Purity (RP-HPLC) [4, 9]: 98.0%
- Total Impurities [4, 9]: 1.9%
- Appearance [4, 10]: White powder
- Assay [4, 10]: 97.0%
- Moisture Content by KF [4, 10]: 2.1%
- Purity (RP-HPLC) [4, 10]: 98.0%
- Total Impurities [4, 10]: 2.0%
- Starting Materials: BT-976 content ([4]; Lot 2, 5° C. ± 3° C./Ambient RH under nitrogen, Initial, preliminary identification by marker retention time): 0.05%^a
- Appearance [4, 11]: White powder
- Assay [4, 11]: 88.2%
- Moisture Content by KF [4, 11]: 4.3%
- Purity (RP-HPLC) [4, 11]: 98.0%
- Total Impurities [4, 11]: 1.9%
- Appearance [4, 12]: White powder
- Assay [4, 12]: 94.6%
- Moisture Content by KF [4, 12]: 1.9%
- Purity (RP-HPLC) [4, 12]: 96.6%
- Total Impurities [4, 12]: 3.4%
- Starting Materials: BT-976 content [4, 13]: 0.05% a
- Starting Materials: DM1 content [4, 13]: 0.09% a
- Appearance [4, 14]: White powder
- Assay [4, 14]: 78.7%
- Purity (RP-HPLC) [4, 14]: 90.8%
- Total Impurities [4, 14]: 9.2%
- change in purity on storage ([4]; after 3 months at −20° C.±5° C.): No significant change in purity
- time stable ([4]; at −20° C.): at least 3 months
- IC50 [5]: 0.042 nM

Reference: patent publication US11213590B2, “SSTR-targeted conjugates and particles and formulations thereof” (priority 2016, dated 2022)
